Measured values taken from IntAct's records for PubMed 18571423.

Target: rbbp7_human RBBP7 (UniProt Q16576)
Sequence (Q16576 whole entry): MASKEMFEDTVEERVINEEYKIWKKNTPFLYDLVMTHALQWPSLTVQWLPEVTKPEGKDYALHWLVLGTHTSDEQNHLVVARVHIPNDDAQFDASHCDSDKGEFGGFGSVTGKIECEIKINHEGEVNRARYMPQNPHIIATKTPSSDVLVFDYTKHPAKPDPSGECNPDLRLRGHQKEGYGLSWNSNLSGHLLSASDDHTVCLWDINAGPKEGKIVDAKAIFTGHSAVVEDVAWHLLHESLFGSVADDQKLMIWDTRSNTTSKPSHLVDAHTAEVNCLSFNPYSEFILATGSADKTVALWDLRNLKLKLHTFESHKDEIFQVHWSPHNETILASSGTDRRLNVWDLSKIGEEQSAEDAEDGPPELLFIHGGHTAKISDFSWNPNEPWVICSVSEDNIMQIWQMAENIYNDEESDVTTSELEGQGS

| effect of a mutation on the interaction | Substance |
| --- | --- |
| disrupting interaction | Histone H4 (Homo sapiens) (from UniProt P62805) L38D;R40V;R41N |
| disrupting interaction | Histone H4 (Homo sapiens) (from UniProt P62805) R40V;R41N |
| disrupting interaction | Histone H4 (Homo sapiens) (from UniProt P62805) I35T;R36S;L38D |
